In IntAct's records for PubMed 12097473:

B1: Kinesin-like protein KIF1B (Homo sapiens), O60333-3 (parent)
chain: MSGASVKVAVRVRPFNSRETSKESKCIIQMQGNSTSIINPKNPKEAPKSFSFDYSYWSHTSPEDPCFASQNRVYNDIGKEMLLHAFEGYNVCIFAYGQTGAGKSYTMMGKQEESQAGIIPQLCEELFEKINDNCNEEMSYSVEVSYMEIYCERVRDLLNPKNKGNLRVREHPLLGPYVEDLSKLAVTSYTDIADLMDAGNKARTVAATNMNETSSRSHAVFTIVFTQKKHDNETNLSTEKVSKISLVDLAGSERADSTGAKGTRLKEGANINKSLTTLGKVISALAEVSKKKKKTDFIPYRDSVLTWLLRENLGGNSRTAMVAALSPADINYDETLSTLRYADRAKQIKCNAVINEDPNAKLVRELKEEVTRLKDLLRAQGLGDIIDTSMGSLTSSPSSCSLSSQVGLTSVTSIQERIMSTPGGEEAIERLKESEKIIAELNETWEEKLRKTEAIRMEREALLAEMGVAIREDGGTLGVFSPKKTPHLVNLNEDPLMSECLLYYIKDGITRVGQADAERRQDIVLSGAHIKEEHCIFRSERSNSGEVIVTLEPCERSETYVNGKRVSQPVQLRSGNRIIMGKNHVFRFNHPEQARAEREKTPSAETPSEPVDWTFAQRELLEKQGIDMKQEMEKRLQEMEILYKKEKEEADLLLEQQRLDADSDSGDDSDKRSCEESWKLITSLREKLPPSKLQTIVKKCGLPSSGKKREPIKMYQIPQRRRLSKDSKWVTISDLKIQAVKEICYEVALNDFRHSRQEIEALAIVKMKELCAMYGKKDPNERDSWRAVARDVWDTVGVGDEKIEDVMATGKGSTDVDDLKVHIDKLEDILQEVKKQNNMKDEEIKVLRNKMLKMEKVLPLIGSQEQKSPGSHKAKEPVGAGVSSTSENNVSKGDNGELAKEERVSQLMNGDPAFRRGRLRWMRQEQIRFKNLQQQEITKQLRRQNVPHRFIPPENRKPRFPFKSNPKHRNSWSPGTHIIITEDEVIELRIPKDDEARKGNKEESQEKGGKGAFKDPQFPWGSQGMRSQDHIQVSKQHINNQQQPPQLRWRSNSLNNGQPKSTRCQASASAESLNSHSGHPTADVQTFQAKRHIHQHRQSYCNYNTGGQLEGNAATSYQKQTDKPSHCSQFVTPPRMRRQFSAPNLKAGRETTV

Variants of: B1
Settings: with dlg1_rat Dlg1, Q62696
dlg1_rat Dlg1, Q62696, sequence (Q62696 whole entry): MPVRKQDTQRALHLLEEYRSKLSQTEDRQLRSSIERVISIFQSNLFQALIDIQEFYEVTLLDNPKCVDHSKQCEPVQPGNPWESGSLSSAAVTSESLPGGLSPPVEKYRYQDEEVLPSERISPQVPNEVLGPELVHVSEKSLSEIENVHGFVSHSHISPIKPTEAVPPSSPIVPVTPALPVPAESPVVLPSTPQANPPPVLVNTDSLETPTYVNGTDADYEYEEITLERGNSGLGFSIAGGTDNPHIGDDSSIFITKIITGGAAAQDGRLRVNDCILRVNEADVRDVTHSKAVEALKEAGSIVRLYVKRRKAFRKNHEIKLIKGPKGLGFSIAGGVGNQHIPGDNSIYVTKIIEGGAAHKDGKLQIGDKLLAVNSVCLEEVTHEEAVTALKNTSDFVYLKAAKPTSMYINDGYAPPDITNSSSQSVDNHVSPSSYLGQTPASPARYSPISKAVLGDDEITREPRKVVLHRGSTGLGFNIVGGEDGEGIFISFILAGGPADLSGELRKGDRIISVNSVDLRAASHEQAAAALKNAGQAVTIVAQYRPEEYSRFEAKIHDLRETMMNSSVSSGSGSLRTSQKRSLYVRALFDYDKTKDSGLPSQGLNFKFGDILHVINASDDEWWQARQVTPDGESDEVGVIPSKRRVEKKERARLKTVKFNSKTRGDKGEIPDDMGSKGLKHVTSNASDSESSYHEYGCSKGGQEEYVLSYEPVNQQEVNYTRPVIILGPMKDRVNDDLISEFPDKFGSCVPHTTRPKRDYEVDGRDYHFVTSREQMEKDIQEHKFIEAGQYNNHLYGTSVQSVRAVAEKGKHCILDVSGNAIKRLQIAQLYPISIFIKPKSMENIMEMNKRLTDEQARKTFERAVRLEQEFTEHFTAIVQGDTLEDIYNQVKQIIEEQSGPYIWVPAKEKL
V1153A was tested, and the “effect of a mutation on the interaction” value was “decreasing interaction”.

Variants of: B1
Settings: with magi2_rat Magi2, O88382
magi2_rat Magi2, O88382, sequence (O88382 whole entry): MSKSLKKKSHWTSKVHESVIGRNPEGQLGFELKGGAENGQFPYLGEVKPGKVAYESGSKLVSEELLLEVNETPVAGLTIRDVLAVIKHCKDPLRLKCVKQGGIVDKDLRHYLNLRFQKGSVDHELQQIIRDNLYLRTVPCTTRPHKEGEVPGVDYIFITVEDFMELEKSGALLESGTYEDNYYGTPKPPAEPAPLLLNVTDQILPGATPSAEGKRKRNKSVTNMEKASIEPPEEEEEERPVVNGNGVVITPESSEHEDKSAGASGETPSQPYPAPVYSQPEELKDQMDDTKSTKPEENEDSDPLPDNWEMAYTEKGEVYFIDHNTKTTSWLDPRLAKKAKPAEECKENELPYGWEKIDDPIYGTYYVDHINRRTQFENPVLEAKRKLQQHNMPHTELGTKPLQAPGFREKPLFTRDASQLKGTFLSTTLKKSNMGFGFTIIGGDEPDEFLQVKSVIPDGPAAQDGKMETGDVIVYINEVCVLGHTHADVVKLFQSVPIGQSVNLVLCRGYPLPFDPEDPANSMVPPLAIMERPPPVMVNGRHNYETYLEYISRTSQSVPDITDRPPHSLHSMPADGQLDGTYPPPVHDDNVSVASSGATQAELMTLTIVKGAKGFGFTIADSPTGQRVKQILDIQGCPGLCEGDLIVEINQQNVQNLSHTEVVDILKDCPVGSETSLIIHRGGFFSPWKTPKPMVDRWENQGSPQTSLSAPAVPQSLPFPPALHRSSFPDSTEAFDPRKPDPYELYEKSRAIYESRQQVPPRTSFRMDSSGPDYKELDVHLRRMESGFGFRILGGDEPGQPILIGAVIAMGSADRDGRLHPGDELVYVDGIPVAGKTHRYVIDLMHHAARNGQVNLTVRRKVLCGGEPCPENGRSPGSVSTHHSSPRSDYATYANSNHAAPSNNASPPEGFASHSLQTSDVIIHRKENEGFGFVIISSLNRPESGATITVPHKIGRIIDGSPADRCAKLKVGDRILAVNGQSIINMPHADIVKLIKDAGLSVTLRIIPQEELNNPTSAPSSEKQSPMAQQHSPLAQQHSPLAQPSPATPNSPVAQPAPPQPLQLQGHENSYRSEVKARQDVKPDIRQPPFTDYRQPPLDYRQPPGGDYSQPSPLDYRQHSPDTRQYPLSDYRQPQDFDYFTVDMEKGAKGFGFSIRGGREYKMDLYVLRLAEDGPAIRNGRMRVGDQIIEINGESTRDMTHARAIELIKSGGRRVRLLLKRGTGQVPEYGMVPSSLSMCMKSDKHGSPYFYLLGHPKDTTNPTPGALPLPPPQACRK
With V1153A the “effect of a mutation on the interaction” value was “disrupting interaction”.

Variants of: B1
Settings: with dlg1_human DLG1, Q12959
dlg1_human DLG1, Q12959, sequence (Q12959 whole entry, looked up): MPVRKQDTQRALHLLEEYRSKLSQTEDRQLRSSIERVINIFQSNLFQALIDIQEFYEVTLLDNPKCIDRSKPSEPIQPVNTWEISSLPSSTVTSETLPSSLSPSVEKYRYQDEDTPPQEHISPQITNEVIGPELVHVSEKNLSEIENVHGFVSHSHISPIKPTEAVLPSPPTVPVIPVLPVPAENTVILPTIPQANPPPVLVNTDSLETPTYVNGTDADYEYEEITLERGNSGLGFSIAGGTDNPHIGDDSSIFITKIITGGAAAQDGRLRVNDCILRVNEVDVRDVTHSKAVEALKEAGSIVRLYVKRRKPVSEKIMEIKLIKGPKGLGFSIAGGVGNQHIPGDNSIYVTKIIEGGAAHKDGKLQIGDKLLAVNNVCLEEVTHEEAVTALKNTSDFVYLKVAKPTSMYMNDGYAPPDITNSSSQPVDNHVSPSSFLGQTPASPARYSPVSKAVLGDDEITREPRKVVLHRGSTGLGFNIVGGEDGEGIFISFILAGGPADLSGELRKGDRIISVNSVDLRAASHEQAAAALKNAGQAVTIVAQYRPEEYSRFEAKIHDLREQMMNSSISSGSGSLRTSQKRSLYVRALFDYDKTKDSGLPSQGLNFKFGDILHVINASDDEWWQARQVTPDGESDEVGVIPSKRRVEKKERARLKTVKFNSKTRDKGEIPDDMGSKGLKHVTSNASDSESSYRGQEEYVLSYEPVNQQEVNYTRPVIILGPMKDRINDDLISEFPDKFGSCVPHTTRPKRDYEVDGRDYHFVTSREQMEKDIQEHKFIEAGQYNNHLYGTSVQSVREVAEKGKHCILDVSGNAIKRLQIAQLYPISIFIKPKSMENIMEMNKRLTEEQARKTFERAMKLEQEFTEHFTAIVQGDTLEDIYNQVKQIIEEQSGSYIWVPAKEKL
For V1153A, the “effect of a mutation on the interaction” value was “decreasing interaction”.

Variants of: B1
Settings: with dlg2_rat Dlg2, Q63622
dlg2_rat Dlg2, Q63622, sequence (Q63622 whole entry, looked up): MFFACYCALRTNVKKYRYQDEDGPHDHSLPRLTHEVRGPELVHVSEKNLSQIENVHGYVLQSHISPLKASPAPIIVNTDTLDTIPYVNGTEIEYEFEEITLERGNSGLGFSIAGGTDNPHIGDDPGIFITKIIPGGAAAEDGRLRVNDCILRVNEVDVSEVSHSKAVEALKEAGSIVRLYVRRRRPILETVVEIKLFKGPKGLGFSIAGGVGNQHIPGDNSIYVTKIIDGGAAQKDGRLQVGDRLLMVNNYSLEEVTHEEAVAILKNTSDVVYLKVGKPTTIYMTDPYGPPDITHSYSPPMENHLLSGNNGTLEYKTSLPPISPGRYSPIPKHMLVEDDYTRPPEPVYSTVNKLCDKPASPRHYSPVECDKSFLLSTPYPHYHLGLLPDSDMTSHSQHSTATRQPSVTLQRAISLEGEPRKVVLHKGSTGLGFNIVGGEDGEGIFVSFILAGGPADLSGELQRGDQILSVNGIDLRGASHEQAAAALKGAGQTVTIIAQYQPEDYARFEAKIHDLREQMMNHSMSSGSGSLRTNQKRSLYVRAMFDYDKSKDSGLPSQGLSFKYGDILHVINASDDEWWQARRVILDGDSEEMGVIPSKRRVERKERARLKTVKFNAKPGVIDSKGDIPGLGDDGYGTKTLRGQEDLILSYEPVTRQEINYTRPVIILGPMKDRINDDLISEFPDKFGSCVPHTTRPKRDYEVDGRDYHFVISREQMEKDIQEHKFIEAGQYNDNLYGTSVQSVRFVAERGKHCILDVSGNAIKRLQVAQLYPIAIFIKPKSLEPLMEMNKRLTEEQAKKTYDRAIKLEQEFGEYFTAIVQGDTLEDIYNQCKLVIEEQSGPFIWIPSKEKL
For V1153A, the “effect of a mutation on the interaction” value was “disrupting interaction”.

Variants of: B1
Settings: with magi1_human MAGI1, Q96QZ7
For V1153A, the “effect of a mutation on the interaction” value was “disrupting interaction”.
